What was measured:
Assay in all cases: cell-based or functional assay
[1] = molecular target: HIV-1 Env of pseudovirus Ce704809221_1B3 (HIV-1)
[2] = molecular target: HIV-1 Env of pseudovirus Ce703010054_2A2 (HIV-1)
[3] = molecular target: HIV-1 Env of pseudovirus CNE58 (HIV-1)
[4] = molecular target: HIV-1 Env of pseudovirus 1056_10_TA11_1826 (HIV-1)
[5] = molecular target: HIV-1 Env of pseudovirus 246F C1G (HIV-1)
[6] = molecular target: HIV-1 Env of pseudovirus 7030102001E5(Rev-) (HIV-1)
[7] = molecular target: HIV-1 Env of pseudovirus Ce0393_C3 (HIV-1)
[8] = molecular target: HIV-1 Env of pseudovirus Q842.d12 (HIV-1)
[9] = molecular target: HIV-1 Env of pseudovirus CAP210.2.00.E8 (HIV-1)
[10] = molecular target: HIV-1 Env of pseudovirus ZM233M.PB6 (HIV-1)
[11] = molecular target: HIV-1 Env of pseudovirus Q259.d2.17 (HIV-1)
[12] = molecular target: HIV-1 Env of pseudovirus HIV-16055-2.3 (HIV-1)
[13] = molecular target: HIV-1 Env of pseudovirus HIV-001428-2.42 (HIV-1)
[14] = molecular target: HIV-1 Env of pseudovirus Du172.17 (HIV-1)
[15] = molecular target: HIV-1 Env of pseudovirus 249M B10 (HIV-1)
[16] = molecular target: HIV-1 Env of pseudovirus REJO4541.67 (HIV-1)
[17] = molecular target: HIV-1 Env of pseudovirus 191084 B7-19 (HIV-1)
[18] = molecular target: HIV-1 Env of pseudovirus 1054_07_TC4_1499 (HIV-1)
[19] = molecular target: HIV-1 Env of pseudovirus 6535.3 (HIV-1)
[20] = molecular target: HIV-1 Env of pseudovirus CAAN5342.A2 (HIV-1)
[21] = molecular target: HIV-1 Env of pseudovirus 62357_14_D3_4589 (HIV-1)
[22] = molecular target: HIV-1 Env of pseudovirus Ce0682_E4 (HIV-1)

10-1074 (antibody)
IC50, titer in TZM.bl cells [1]: 0.139 µg/mL
IC80, titer in TZM.bl cells [1]: 0.696 µg/mL
IC50, titer in TZM.bl cells [2]: > 50 µg/mL
IC80, titer in TZM.bl cells [2]: > 50 µg/mL
IC50, titer in TZM.bl cells [3]: 0.267 µg/mL
IC80, titer in TZM.bl cells [3]: 0.968 µg/mL
IC50, titer in TZM.bl cells [4]: 0.038 µg/mL
IC80, titer in TZM.bl cells [4]: 0.272 µg/mL
IC50, titer in TZM.bl cells [5]: 0.022 µg/mL
IC80, titer in TZM.bl cells [5]: 0.111 µg/mL
IC50, titer in TZM.bl cells [6]: 0.006 µg/mL
IC80, titer in TZM.bl cells [6]: 0.021 µg/mL
IC50, titer in TZM.bl cells [7]: > 50 µg/mL
IC80, titer in TZM.bl cells [7]: > 50 µg/mL
IC50, titer in TZM.bl cells [8]: > 50 µg/mL
IC80, titer in TZM.bl cells [8]: > 50 µg/mL
IC50, titer in TZM.bl cells [9]: > 50 µg/mL
IC80, titer in TZM.bl cells [9]: > 50 µg/mL
IC50, titer in TZM.bl cells [10]: 0.06 µg/mL
IC80, titer in TZM.bl cells [10]: 0.349 µg/mL
IC50, titer in TZM.bl cells [11]: > 50 µg/mL
IC80, titer in TZM.bl cells [11]: > 50 µg/mL
IC50, titer in TZM.bl cells [12]: > 50 µg/mL
IC80, titer in TZM.bl cells [12]: > 50 µg/mL
IC50, titer in TZM.bl cells [13]: 0.044 µg/mL
IC80, titer in TZM.bl cells [13]: 0.261 µg/mL
IC50, titer in TZM.bl cells [14]: 0.121 µg/mL
IC80, titer in TZM.bl cells [14]: 0.43 µg/mL
IC50, titer in TZM.bl cells [15]: > 50 µg/mL
IC80, titer in TZM.bl cells [15]: > 50 µg/mL
IC50, titer in TZM.bl cells [16]: > 50 µg/mL
IC80, titer in TZM.bl cells [16]: > 50 µg/mL
IC50, titer in TZM.bl cells [17]: 0.032 µg/mL
IC80, titer in TZM.bl cells [17]: 0.128 µg/mL
IC50, titer in TZM.bl cells [18]: 0.129 µg/mL
IC80, titer in TZM.bl cells [18]: 0.563 µg/mL
IC50, titer in TZM.bl cells [19]: 0.014 µg/mL
IC80, titer in TZM.bl cells [19]: 0.026 µg/mL
IC50, titer in TZM.bl cells [20]: 0.007 µg/mL
IC80, titer in TZM.bl cells [20]: 0.036 µg/mL
IC50, titer in TZM.bl cells [21]: > 50 µg/mL
IC80, titer in TZM.bl cells [21]: > 50 µg/mL
IC50, titer in TZM.bl cells [22]: > 50 µg/mL
IC80, titer in TZM.bl cells [22]: > 50 µg/mL

PG9 (antibody)
IC50, titer in TZM.bl cells [1]: 0.037 µg/mL
IC80, titer in TZM.bl cells [1]: 0.137 µg/mL
IC50, titer in TZM.bl cells [2]: 0.022 µg/mL
IC80, titer in TZM.bl cells [2]: 0.103 µg/mL
IC50, titer in TZM.bl cells [3]: 0.038 µg/mL
IC80, titer in TZM.bl cells [3]: 0.122 µg/mL
IC50, titer in TZM.bl cells [4]: 6.34 µg/mL
IC80, titer in TZM.bl cells [4]: 38.3 µg/mL
IC50, titer in TZM.bl cells [5]: > 50 µg/mL
IC80, titer in TZM.bl cells [5]: > 50 µg/mL
IC50, titer in TZM.bl cells [6]: > 50 µg/mL
IC80, titer in TZM.bl cells [6]: > 50 µg/mL
IC50, titer in TZM.bl cells [7]: 0.02 µg/mL
IC80, titer in TZM.bl cells [7]: 0.055 µg/mL
IC50, titer in TZM.bl cells [8]: 0.023 µg/mL
IC80, titer in TZM.bl cells [8]: 0.081 µg/mL
IC50, titer in TZM.bl cells [9]: 0.04 µg/mL
IC80, titer in TZM.bl cells [9]: 0.173 µg/mL
IC50, titer in TZM.bl cells [10]: 0.01 µg/mL
IC80, titer in TZM.bl cells [10]: 0.026 µg/mL
IC50, titer in TZM.bl cells [11]: 0.029 µg/mL
IC80, titer in TZM.bl cells [11]: 1.38 µg/mL
IC50, titer in TZM.bl cells [12]: 0.021 µg/mL
IC80, titer in TZM.bl cells [12]: 0.06 µg/mL
IC50, titer in TZM.bl cells [13]: 0.101 µg/mL
IC80, titer in TZM.bl cells [13]: 0.25 µg/mL
IC50, titer in TZM.bl cells [14]: 0.606 µg/mL
IC80, titer in TZM.bl cells [14]: 1.6 µg/mL
IC50, titer in TZM.bl cells [15]: 0.095 µg/mL
IC80, titer in TZM.bl cells [15]: 0.29 µg/mL
IC50, titer in TZM.bl cells [16]: 0.012 µg/mL
IC80, titer in TZM.bl cells [16]: 0.163 µg/mL
IC50, titer in TZM.bl cells [17]: 0.043 µg/mL
IC80, titer in TZM.bl cells [17]: 0.202 µg/mL
IC50, titer in TZM.bl cells [18]: > 50 µg/mL
IC80, titer in TZM.bl cells [18]: > 50 µg/mL
IC50, titer in TZM.bl cells [19]: 0.176 µg/mL
IC80, titer in TZM.bl cells [19]: 0.627 µg/mL
IC50, titer in TZM.bl cells [20]: 4.6 µg/mL
IC80, titer in TZM.bl cells [20]: 27 µg/mL
IC50, titer in TZM.bl cells [21]: > 50 µg/mL
IC80, titer in TZM.bl cells [21]: > 50 µg/mL
IC50, titer in TZM.bl cells [22]: 0.196 µg/mL
IC80, titer in TZM.bl cells [22]: 0.698 µg/mL

Reference: patent US20230002480A1
